Reference: paper doi:10.1101/2021.01.06.425657, “The SCF^Met30 ubiquitin ligase senses cellular redox state to regulate the transcription of sulfur metabolism gene” (bioRxiv, 2021)

T1: His-SUMO-Met4-Strep-tagII-HA (S. cerevisiae, UniProt P32389 1-672)
T1 construct: Met4, transcription factor of the MET regulon, Saccharomyces cerevisiae; MET4 ORF cloned into the pET His6 Sumo vector; fractions with pure, full-length Met4 were pooled; No cleavage of His-SUMO is described; also called recombinant Met4; bacterially purified Met4; source: E. coli BL21, purified (Ni-NTA, Strep-Tactin Sepharose); not shown: HA, C-terminal, kept
T1 sequence (looked up): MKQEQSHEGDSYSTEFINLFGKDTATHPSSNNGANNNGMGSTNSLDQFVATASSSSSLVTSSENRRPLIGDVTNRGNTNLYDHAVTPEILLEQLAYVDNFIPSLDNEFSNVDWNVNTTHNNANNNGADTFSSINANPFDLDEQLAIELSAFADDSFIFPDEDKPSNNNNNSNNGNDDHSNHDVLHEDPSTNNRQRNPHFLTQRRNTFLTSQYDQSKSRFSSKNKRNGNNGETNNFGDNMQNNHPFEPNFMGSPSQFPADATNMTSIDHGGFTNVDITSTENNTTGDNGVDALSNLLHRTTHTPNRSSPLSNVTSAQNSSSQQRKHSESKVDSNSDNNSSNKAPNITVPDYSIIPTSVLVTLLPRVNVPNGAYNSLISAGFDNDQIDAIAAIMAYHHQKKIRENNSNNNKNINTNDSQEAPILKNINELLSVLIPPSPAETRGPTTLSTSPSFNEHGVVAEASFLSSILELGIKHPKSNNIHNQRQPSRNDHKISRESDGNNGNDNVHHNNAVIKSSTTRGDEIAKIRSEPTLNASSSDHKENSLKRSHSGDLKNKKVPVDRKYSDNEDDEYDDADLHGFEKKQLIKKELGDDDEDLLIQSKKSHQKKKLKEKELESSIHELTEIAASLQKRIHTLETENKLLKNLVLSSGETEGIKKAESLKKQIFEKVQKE


Target: T1, His-SUMO-Met4-Strep-tagII-HA
Assay: pull-down; Met30-Flag complex isolated on anti-FLAG M2 protein G dynabeads from lysate of rich or -sulfur cells with 1 mM DTT, 1 mM diamide or nothing added; beads washed, then incubated with 1 ug purified recombinant Met4 in 1 mL IP buffer (50 mM Tris pH 7.5, 150 mM NaCl, 1% NP-40) with or without 1 mM DTT, 2 h, 4°C; Western blots for Met4 and Met30; mutants from cells grown in rich media
Conditions: both partners purified

Row | binding result | Binder
1 | binds | Met30-Flag (natural protein, S. cerevisiae, UniProt P39014 1-640, looked up, Met30, F-box protein of the SCF^Met30 E3 ubiquitin ligase, Saccharomyces cerevisiae (CEN.PK background); endogenous locus tagged at the C-terminus; 23 cysteines; Isolated from yeast as a Met30-Flag complex, so other SCF components may be on the beads; Cysteines are reduced or oxidised depending on the IP condition (+DTT, -DTT, +diamide); also called SCF^Met30-Flag; Flag-tagged Met30; source: S. …) MRRERQRMMSFEDKDKDDLDNSNSNNSSEMTDTAMMPPLKRLLITGSSDDLAQGSSGKKKMTMATRSPSSSPDLATNDSGTRVQPLPEYNFTKFCYRHNPDIQFSPTHTACYKQDLKRTQEINANIAKLPLQEQSDIHHIISKYSNSNDKIRKLILDGILSTSCFPQLSYISSLVTHMIKIDFISILPQELSLKILSYLDCQSLCNATRVCRKWQKLADDDRVWYHMCEQHIDRKCPNCGWGLPLLHMKRARIQQNSTGSSSNADIQTQTTRPWKVIYRERFKVESNWRKGHCRIQEFKGHMDGVLTLQFNYRLLFTGSYDSTIGIWDLFTGKLIRRLSGHSDGVKTLYFDDRKLITGSLDKTIRVWNYITGECISTYRGHSDSVLSVDSYQKVIVSGSADKTVKVWHVESRTCYTLRGHTEWVNCVKLHPKSFSCFSCSDDTTIRMWDIRTNSCLKVFRGHVGQVQKIIPLTIKDVENLATDNTSDGSSPQDDPTMTDGADESDTPSNEQETVLDENIPYPTHLLSCGLDNTIKLWDVKTGKCIRTQFGHVEGVWDIAADNFRIISGSHDGSIKVWDLQSGKCMHTFNGRRLQRETQHTQTQSLGDKVAPIACVCIGDSECFSGDEFGCVKMYKFDLND
2 | binds | Met30 C614/616/622/630S (Flag-tagged) (natural protein, S. cerevisiae, UniProt P39014 1-640, looked up, Met30, F-box protein, Saccharomyces cerevisiae (CEN.PK background), with four cysteine to serine mutations in the WD-40 repeat region; whole gene locus with tag transformed into yeast; source: S. cerevisiae CEN.PK mutant strain grown in rich media, immunopurified on anti-FLAG M2 magnetic beads; not shown: Flag, C-terminal, kept) MRRERQRMMSFEDKDKDDLDNSNSNNSSEMTDTAMMPPLKRLLITGSSDDLAQGSSGKKKMTMATRSPSSSPDLATNDSGTRVQPLPEYNFTKFCYRHNPDIQFSPTHTACYKQDLKRTQEINANIAKLPLQEQSDIHHIISKYSNSNDKIRKLILDGILSTSCFPQLSYISSLVTHMIKIDFISILPQELSLKILSYLDCQSLCNATRVCRKWQKLADDDRVWYHMCEQHIDRKCPNCGWGLPLLHMKRARIQQNSTGSSSNADIQTQTTRPWKVIYRERFKVESNWRKGHCRIQEFKGHMDGVLTLQFNYRLLFTGSYDSTIGIWDLFTGKLIRRLSGHSDGVKTLYFDDRKLITGSLDKTIRVWNYITGECISTYRGHSDSVLSVDSYQKVIVSGSADKTVKVWHVESRTCYTLRGHTEWVNCVKLHPKSFSCFSCSDDTTIRMWDIRTNSCLKVFRGHVGQVQKIIPLTIKDVENLATDNTSDGSSPQDDPTMTDGADESDTPSNEQETVLDENIPYPTHLLSCGLDNTIKLWDVKTGKCIRTQFGHVEGVWDIAADNFRIISGSHDGSIKVWDLQSGKCMHTFNGRRLQRETQHTQTQSLGDKVAPIASVSIGDSESFSGDEFGSVKMYKFDLND
3 | binds | Met30 C414S (Flag-tagged) (natural protein, S. cerevisiae, UniProt P39014 1-640, looked up, Met30, F-box protein, Saccharomyces cerevisiae (CEN.PK background), with the point mutation C414S; whole gene locus with tag transformed into yeast; source: S. cerevisiae CEN.PK mutant strain grown in rich media, immunopurified on anti-FLAG M2 magnetic beads; not shown: Flag, C-terminal, kept) MRRERQRMMSFEDKDKDDLDNSNSNNSSEMTDTAMMPPLKRLLITGSSDDLAQGSSGKKKMTMATRSPSSSPDLATNDSGTRVQPLPEYNFTKFCYRHNPDIQFSPTHTACYKQDLKRTQEINANIAKLPLQEQSDIHHIISKYSNSNDKIRKLILDGILSTSCFPQLSYISSLVTHMIKIDFISILPQELSLKILSYLDCQSLCNATRVCRKWQKLADDDRVWYHMCEQHIDRKCPNCGWGLPLLHMKRARIQQNSTGSSSNADIQTQTTRPWKVIYRERFKVESNWRKGHCRIQEFKGHMDGVLTLQFNYRLLFTGSYDSTIGIWDLFTGKLIRRLSGHSDGVKTLYFDDRKLITGSLDKTIRVWNYITGECISTYRGHSDSVLSVDSYQKVIVSGSADKTVKVWHVESRTSYTLRGHTEWVNCVKLHPKSFSCFSCSDDTTIRMWDIRTNSCLKVFRGHVGQVQKIIPLTIKDVENLATDNTSDGSSPQDDPTMTDGADESDTPSNEQETVLDENIPYPTHLLSCGLDNTIKLWDVKTGKCIRTQFGHVEGVWDIAADNFRIISGSHDGSIKVWDLQSGKCMHTFNGRRLQRETQHTQTQSLGDKVAPIACVCIGDSECFSGDEFGCVKMYKFDLND
